The subject of assay [1] is Leucine aminopeptidase, cytosol + Carboxypeptidase Y. Put plainly: Reactivity of peptidase formulations against synthetic peptides: LC + carboxypeptidase Y. It is filed as biochemical. To be noted: phosphate buffer pH 5.3, 37° C. 3 hours, HPLC. On the procedure:
(§1) Peptides shown in Table 1 were chemically synthesized. […] All of these synthetic peptides were synthesized with the automatic peptide synthesizing machine PPSM-8 (manufactured by Shimadzu Corporation).
(§2) Each synthetic peptide was dissolved at the concentration of 10 μg/ml in 100 mM phosphate buffer pH 5.3 as to Experiments 1-1 to 1-4, 1-10 to 1-12, 1-16 and 1-21, or in 50 mM Tris-HCl buffer pH 8.0 as to other Experiments. Each of various peptidase formulations shown in Table 1 was then added so that the concentration thereof became 0.01 μg/ml, and the reaction was performed at 37° C. for 3 hours. After the enzyme reaction, the mixture was analyzed by the reverse phase high performance liquid chromatography (HPLC). […] The fractions of the detected peak were collected and amino acid sequence analysis was performed by the automatic peptide analyzer model PPSQ-10 (manufactured by Shimadzu Corporation). […]

The subject of assay [2] is Aminopeptidase + Carboxypeptidase Y. Put plainly: Reactivity of peptidase formulations against synthetic peptides: aminopeptidase A + carboxypeptidase Y. It is filed as biochemical. To be noted: 0.01 μg/ml, peptide 10 μg/ml, phosphate buffer pH 5.3, 37° C. 3 hours, HPLC. On the procedure:
as §1, §2

In assay [3] the test system is Aminipeptidase I + Carboxypeptidase Y. Put plainly: Reactivity of peptidase formulations against synthetic peptides: aminopeptidase I + carboxypeptidase Y. It is filed as biochemical. The settings on record: phosphate buffer pH 5.3, 37° C. 3 hours, HPLC. The procedure:
as §1, §2

Assay [4] concerns Leucine aminopeptidase, microsomal + Carboxypeptidase Y. Put plainly: Reactivity of peptidase formulations against synthetic peptides: LM + carboxypeptidase Y. To be noted: phosphate buffer pH 5.3, 37° C. 3 hours, HPLC. The format is biochemical. The procedure:
as §1, §2

In the next assay the target is T1, Aminipeptidase I (Streptomyces griseus subsp. griseus, UniProt P80561).
T1 construct: purchased Sigma Chemical Co
Put plainly: Reactivity of peptidase formulations against synthetic peptides: aminopeptidase I alone. It is filed as biochemical. To be noted: no carboxypeptidase, Tris-HCl pH 8.0, 37° C. 3 hours, HPLC. The procedure:
as §1, §2

A further assay deals with Aminopeptidase. Briefly: Reactivity of peptidase formulations against synthetic peptides: aminopeptidase A alone. The settings on record: no carboxypeptidase, Tris-HCl pH 8.0, 37° C. 3 hours, HPLC. It is filed as biochemical. The procedure: as §1, §2
In assay [5] the target is T2, Leucine aminopeptidase, cytosol (Sus scrofa, UniProt P28839).
T2 construct: purchased Sigma Chemical Co; host or cells: porcine kidney
T2 sequence (P28839 1-519): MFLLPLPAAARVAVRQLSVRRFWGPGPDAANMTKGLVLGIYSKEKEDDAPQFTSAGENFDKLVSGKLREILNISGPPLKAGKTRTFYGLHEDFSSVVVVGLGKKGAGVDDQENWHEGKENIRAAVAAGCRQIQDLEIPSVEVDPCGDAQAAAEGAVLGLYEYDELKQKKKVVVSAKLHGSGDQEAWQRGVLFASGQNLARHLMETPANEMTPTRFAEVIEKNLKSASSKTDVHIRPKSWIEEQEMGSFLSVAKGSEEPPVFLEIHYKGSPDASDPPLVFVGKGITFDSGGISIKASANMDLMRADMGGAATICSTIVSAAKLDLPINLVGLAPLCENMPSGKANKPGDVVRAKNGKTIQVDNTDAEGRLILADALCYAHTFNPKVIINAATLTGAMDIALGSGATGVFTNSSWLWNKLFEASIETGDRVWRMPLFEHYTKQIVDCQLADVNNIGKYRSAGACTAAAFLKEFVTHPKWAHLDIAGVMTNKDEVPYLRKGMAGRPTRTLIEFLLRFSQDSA
Briefly: Reactivity of peptidase formulations against synthetic peptides: LC alone. It is filed as biochemical, porcine. The settings on record: no carboxypeptidase, Tris-HCl pH 8.0, 37° C. 3 hours, HPLC. On the procedure: as §1, §2

The target in assay [6] is T3, Leucine aminopeptidase, microsomal (Sus scrofa, UniProt P15145).
T3 construct: purchased Sigma Chemical Co; host or cells: porcine kidney
T3 sequence (P15145 1-963): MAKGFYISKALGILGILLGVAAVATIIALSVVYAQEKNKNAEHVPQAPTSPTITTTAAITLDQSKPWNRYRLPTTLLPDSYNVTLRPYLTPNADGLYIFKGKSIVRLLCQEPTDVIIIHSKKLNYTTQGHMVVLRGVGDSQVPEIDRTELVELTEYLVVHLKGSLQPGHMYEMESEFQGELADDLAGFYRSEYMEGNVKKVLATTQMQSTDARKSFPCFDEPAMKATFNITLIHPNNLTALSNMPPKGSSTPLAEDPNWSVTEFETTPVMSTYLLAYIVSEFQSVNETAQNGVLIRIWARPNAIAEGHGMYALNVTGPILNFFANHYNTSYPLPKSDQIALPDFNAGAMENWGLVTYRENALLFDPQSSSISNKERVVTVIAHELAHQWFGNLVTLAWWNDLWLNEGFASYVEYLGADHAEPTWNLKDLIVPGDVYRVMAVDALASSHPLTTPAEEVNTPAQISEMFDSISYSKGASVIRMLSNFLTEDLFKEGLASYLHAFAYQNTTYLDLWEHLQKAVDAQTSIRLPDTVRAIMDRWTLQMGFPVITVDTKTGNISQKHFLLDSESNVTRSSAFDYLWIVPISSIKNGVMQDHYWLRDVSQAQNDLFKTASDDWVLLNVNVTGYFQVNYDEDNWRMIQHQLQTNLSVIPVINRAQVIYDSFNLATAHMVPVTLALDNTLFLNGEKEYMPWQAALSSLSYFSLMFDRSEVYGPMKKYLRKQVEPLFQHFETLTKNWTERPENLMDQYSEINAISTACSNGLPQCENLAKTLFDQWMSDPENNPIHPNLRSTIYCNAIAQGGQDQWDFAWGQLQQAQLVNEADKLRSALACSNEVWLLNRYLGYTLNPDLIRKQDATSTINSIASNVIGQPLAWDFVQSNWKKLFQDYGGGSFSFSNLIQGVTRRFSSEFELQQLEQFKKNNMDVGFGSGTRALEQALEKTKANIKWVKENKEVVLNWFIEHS
Put plainly: Reactivity of peptidase formulations against synthetic peptides: LM alone. It is filed as biochemical, porcine. To be noted: no carboxypeptidase, Tris-HCl pH 8.0, 37° C. 3 hours, HPLC. On the procedure:
as §1, §2

Assay [7] concerns synthetic peptide consisting of the 28 amino acids (SEQ ID NO: 28). Briefly: Two step reaction of proteinase and fraction 4 on the 28 amino acid synthetic peptide. The settings on record: proteinase 0.1 μg/ml on 28-mer 10 μg/ml, pH 6.1, 37° C. 5 hours, heat inactivation, then fraction 4, HPLC. It is filed as biochemical. On the procedure:
To 10 μg/ml of the synthetic peptide consisting of the 28 amino acids that is the same as the one used in Experiment 2 (in 100 mM phosphate buffer pH 6.1), each of the commercially available proteinase enzymes for food processing shown in Table 4 was added at 0.1 μg/ml. The mixture was reacted at 37° C. for 5 hours. After finishing the reaction, the reacted liquid was heated at 100° C. for 5 minutes for inactivating the proteinase, and then reacted with the fraction 4 obtained in Experiment 4.

Assay [8] deals with synthetic peptide consisting of 28 amino acids (SEQ ID NO: 28). Put plainly: Production of the intermediate peptides with proteinase from the 28 amino acid synthetic peptide. The format is biochemical. The settings on record: enzyme 0.1 μg/ml, 28-mer 10 μg/ml, phosphate buffer pH 6.1, 37° C. 5 hours; HPLC and sequence analysis. From the text: A peptide consisting of 28 amino acids and having a sequence identical with a part of casein sequence and containing the sequence Ile-Pro-Pro and Val-Pro-Pro therein was chemically synthesized by the automatic peptide synthesizer model […]. The sequence of the peptide synthesized is as follows: […](SEQ ID NO: 28)
This synthetic peptide was reacted with various commercially available proteinase formulations, seeking for a proteinase capable of producing a peptide containing the sequence Ile-Pro-Pro or Val-Pro-Pro therein but containing no Pro other than these sequences.
That is, 0.1 μg/ml of each enzyme was added to 10 μg/ml of the synthetic peptide (in 100 mM phosphate buffer pH 6.1). The mixture was reacted at 37° C. for 5 hours to obtain a reacted liquid. The reacted liquid was analyzed by the reverse phase high performance liquid chromatography (HPLC). The fractions of the detected peptide peaks were collected and amino acid sequence analysis was performed by the automatic peptide analyzer model PPSQ-10.

T1 sequence (P80561 46-329): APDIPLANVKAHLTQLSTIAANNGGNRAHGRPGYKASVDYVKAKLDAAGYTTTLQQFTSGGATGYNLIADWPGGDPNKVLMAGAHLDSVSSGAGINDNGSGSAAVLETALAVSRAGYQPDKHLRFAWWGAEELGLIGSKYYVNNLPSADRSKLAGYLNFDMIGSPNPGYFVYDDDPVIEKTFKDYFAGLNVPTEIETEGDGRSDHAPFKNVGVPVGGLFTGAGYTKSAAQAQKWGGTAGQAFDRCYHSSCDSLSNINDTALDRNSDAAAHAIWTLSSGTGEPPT

Turning to Asn Ile Pro Pro Leu (NIPPL), the “Existence of IPP or VPP peaks” value in [1], in assay [2], in [3] and in [4] was “IPP” throughout.
Turning to Val Val Pro Pro (VVPP), the “Existence of IPP or VPP peaks” value (with Aminipeptidase I; in the assay on Aminopeptidase; in [5]; in assay [6]) was “VPP” each time.

B1: Papain: proteinase, Papaya Latex, Sigma Chemical Co. (protein, UniProt P00784 134-345, looked up)
Papain: IPEYVDWRQKGAVTPVKNQGSCGSCWAFSAVVTIEGIIKIRTGNLNEYSEQELLDCDRRSYGCNGGYPWSALQLVAQYGIHYRNTYPYEGVQRYCRSREKGPYAAKTDGVRQVQPYNEGALLYSIANQPVSVVLEAAGKDFQLYRGGIFVGPCGNKVDHAVAAVGYGPNYILIKNSWGTGWGENGYIRIKRGTGNSYGVCGLYTSSFYPVKN
As to B1, the “Production of the tripeptides Ile-Pro-Pro and Val-Pro-Pro” value in assay [7] is “Yes”; in assay [7] (listed as papain) it was “can produce the tripeptides Ile-Pro-Pro and Val-Pro-Pro”. For the same molecule, the “Peptides produced in the reaction mixture” value in [8] is “a peptide Val-Pro-Pro-Phe-Leu as the peptide containing the sequence Val-Pro-Pro, and peptides Asn-Ile-Pro-Pro-Leu-Thr and Ile-Pro-Pro-Leu-Thr”.

For the origin of these results see US6994987B1, “Process for producing tripeptides” (Calpis Co., Ltd., priority 1999, dated 2006).
